Results as given in PMC5352738, “Characterization of three pyranose dehydrogenase isoforms from the litter-decomposing basidiomycete Leucoagaricus meleagris (syn. Agaricus meleagris)” (Applied Microbiology and Biotechnology, 2016).

System: CCn1c(=N[N]c2sc3cc(S(=O)(=O)O)ccc3[n+]2CC)sc2cc(S(=O)(=O)O)ccc21
Assay: purified protein
Settings: pH 4.0; 30.0 °C

## AmPDH1 (Macropsalliota meleagris)
  Km: 79.1 ± 9 µM
  kcat/Km: 94600 M⁻¹ s⁻¹

## AmPDH2 (Macropsalliota meleagris)
  Km: 109 ± 10 µM
  kcat/Km: 38900 M⁻¹ s⁻¹

## AmPDH3 (Macropsalliota meleagris)
  Km: 13.2 ± 1.2 µM
  kcat/Km: 532000 M⁻¹ s⁻¹
